Among the data in US20220332804A1 (CSL INNOVATION, published 2022) are binding result and Kd values, retold here.

Common to all, as to assay: SPR, mAb captured, C2 mutant analyte;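 further: Anti-C2 mAbs captured on goat anti-human IgG Biacore CM5 chips, alanine or serine C2 surface mutants flowed over at 37 °C, double-referenced sensorgrams fitted to a 1:1 binding model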
For orientation: In SPR one partner is held on a chip, and binding of the other changes the refractive index at the surface.

In one assay the target is T1, human C2 F270A (human, UniProt P06681 21-752).
T1 sequence: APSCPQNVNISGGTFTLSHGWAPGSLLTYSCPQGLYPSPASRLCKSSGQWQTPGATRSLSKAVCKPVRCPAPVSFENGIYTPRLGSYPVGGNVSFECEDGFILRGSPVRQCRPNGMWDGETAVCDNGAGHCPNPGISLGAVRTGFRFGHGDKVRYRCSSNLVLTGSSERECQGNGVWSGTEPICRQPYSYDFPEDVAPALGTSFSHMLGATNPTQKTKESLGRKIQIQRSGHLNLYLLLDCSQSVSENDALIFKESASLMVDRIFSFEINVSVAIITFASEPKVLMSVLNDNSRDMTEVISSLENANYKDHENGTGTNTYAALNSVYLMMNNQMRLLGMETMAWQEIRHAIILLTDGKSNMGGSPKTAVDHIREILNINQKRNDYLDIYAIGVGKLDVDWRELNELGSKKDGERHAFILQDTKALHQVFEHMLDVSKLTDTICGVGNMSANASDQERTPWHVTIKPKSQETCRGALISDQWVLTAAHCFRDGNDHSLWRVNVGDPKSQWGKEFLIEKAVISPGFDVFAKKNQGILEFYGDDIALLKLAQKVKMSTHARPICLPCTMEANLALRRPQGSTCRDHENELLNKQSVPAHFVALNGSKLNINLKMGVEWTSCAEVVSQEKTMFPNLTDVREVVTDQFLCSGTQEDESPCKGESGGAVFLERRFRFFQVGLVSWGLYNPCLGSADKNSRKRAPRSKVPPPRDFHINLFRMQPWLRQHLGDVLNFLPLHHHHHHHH

Another assay deals with T2, human C2 D282A (human, UniProt P06681 21-752).
T2 sequence: T1 sequence with A250F, D262A

For a further assay, the target named is T3, human C2 A326S (human, UniProt P06681 21-752).
T3 sequence: T1 sequence with A250F, A306S

A further assay concerns the target T4, human C2 E450A (human, UniProt P06681 21-752).
T4 sequence: T1 sequence with A250F, E430A

Numbering of substitutions follows the chain as printed.

B1: RF16-214 (antibody, V domains shown)
VH: EVQLLESGGGLVQPGGSLRLSCAASGFTFSWYQMMWVRQAPGKGLEWVSRIYPSGGGTAYADSVKGRFTISRDNSKNTLYLQMNSLRAEDTAVYYCARDAGYGDNWGQGTLVTVSS
VL: QSALTQPPSVSVSPGQTASITCSGDKLGEKYASWYQQKAGQSPVMVIYQDRKRPSGIPERFSGSNSGNTATLTISGTQAMDEADYYCQAWDTRAVVFGGGTKLTVLG
As for B1, the binding result with human C2 F270A and with human C2 D282A was “no binding” throughout. In addition, the Kd – broadly, the equilibrium constant for the complex coming apart – with human C2 A326S came out at 45.5 nM; with human C2 E450A it was 627 nM.
